Reference: the supplement of paper PMC10126150
± gives the standard deviation of the averaged measurements.

Test system: ATP
Experiment: switch fluorescence ratio, 500 uM ATP over buffer (Cy3 cluster intensity, sum of 5 cycles each) (fold (ratio)); higher = stronger signal-on switching upon ATP binding; sequences stand for … in TCGTCGGCAGCGTCAGATGTGTATAAGAGACAGTTTTTTTTTTTTTTTTTTTTTTTTT…TC
Details: aptamer strand: ATP DNA aptamer (quencher-CACCTGGGGGAGTATTGCGGAGGAAGG + anchor), 100 nM annealed; ATP concentration: 500 uM
Summary of the method: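 For every switch-domain sequence, the fluorescence ratio is the mean of per-cluster values, each being summed target-cycle Cy3 intensity over summed buffer-cycle Cy3 intensity. Clusters outside 100-1000 RFU were excluded. On a modified Illumina MiSeq flow-cell, the Cy3-labelled switching-strand clusters were annealed to 100 nM quencher-labelled ATP aptamer, imaged in selection buffer and then after 15 min with 500 uM ATP at 22 °C. Five such cycles were run, with NaOH stripping and re-annealing between them.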
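Further: ATP exposure 15 min at 22 °C before imaging.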

Row | Sequence | switch fluorescence ratio
1 | GGAATAGATG | 1.026 ± 0.0015
2 | GGAATAGGGT | 0.98 ± 0.052
3 | GGAATCCGGG | 0.987 ± 0.037
4 | GGAATCCTTG | 1 ± 0.0087
5 | GGAATCGGGC | 0.9487 ± 0.0014
6 | GGAATCGGTG | 0.996 ± 0.04
7 | GGAATGAAG | 1.012 ± 0.01
8 | GGAATGACGA | 0.989 ± 0.048
9 | GGAATGAGTA | 0.997 ± 0.016
10 | GGAATGCGGG | 0.9701 ± 0.0077
11 | GGAATGGGGA | 1 ± 0.037
12 | GGAATGGTAG | 1.01 ± 0.099
13 | GGAATGTCGG | 0.962 ± 0.051
14 | GGAATTGATG | 1.04 ± 0.046
15 | GGAATTGCA | 0.958 ± 0.022
16 | GGAATTGTCC | 1.44 ± 0.69
17 | GGAATTTGTT | 1 ± 0.021
18 | GGACAAAACT | 1.08 ± 0.12
19 | GGACAAGGGG | 0.962 ± 0.038
20 | GGACACATGC | 1.1 ± 0.14
21 | GGACATGTAG | 0.965 ± 0.024
22 | GGACCAAAAG | 1.002 ± 0.0067

Row | Sequence | switch fluorescence ratio
23 | GGACCAGGGT | 1.04 ± 0.0071
24 | GGACCATATC | 1.07 ± 0.017
25 | GGACCGCATT | 2.5 ± 0.22
26 | GGACCGGTGA | 1.01 ± 0.042
27 | GGACCTGGTT | 0.986 ± 0.013
28 | GGACGCGTGG | 1.01 ± 0.018
29 | GGACGGAAGA | 1.101 ± 0.01
30 | GGACGGCCGC | 1.06 ± 0.037
31 | GGACGGTATT | 1.08 ± 0.051
32 | GGACGTTTTT | 1.01 ± 0.015
33 | GGACTACCGC | 1.14 ± 0.019
34 | GGACTCAGGG | 1.03 ± 0.051
35 | GGACTCTCGG | 0.967 ± 0.024
36 | GGACTTATTT | 0.986 ± 0.014
37 | GGACTTGTGA | 0.997 ± 0.018
38 | GGAGAAAGCG | 0.976 ± 0.016
39 | GGAGAATATG | 1.038 ± 0.0095
40 | GGAGACAGGA | 1.04 ± 0.012
41 | GGAGAGAAAG | 0.9866 ± 0.0024
42 | GGAGAGAGGG | 1.02 ± 0.044
43 | GGAGAGCATT | 1.039 ± 0.0091
44 | GGAGAGCGGT | 1.02 ± 0.011

Row | Sequence | switch fluorescence ratio
45 | GGAGAGGCGT | 1 ± 0.013
46 | GGAGATAGTT | 0.9806 ± 0.0057
47 | GGAGATTGTG | 0.9766 ± 0.0043
48 | GGAGCAAGGG | 3.37 ± 1.5
49 | GGAGCAGGCG | 1.04 ± 0.04
50 | GGAGCTAGGG | 1.056 ± 0.0058
51 | GGAGGAAGGC | 1.75 ± 0.58
52 | GGAGGAAGGG | 0.983 ± 0.025
53 | GGAGGAGATA | 0.995 ± 0.02
54 | GGAGGAGTGT | 0.959 ± 0.037
55 | GGAGGATGAG | 1.01 ± 0.013
56 | GGAGGATGGG | 1 ± 0.014
57 | GGAGGCGGTG | 1.048 ± 0.0039
58 | GGAGGCTAGC | 1.01 ± 0.054
59 | GGAGGGATAA | 1.1 ± 0.054
60 | GGAGGGCTCG | 0.981 ± 0.043
61 | GGAGGGGATG | 0.981 ± 0.011
62 | GGAGGGTGAG | 0.984 ± 0.014
63 | GGAGGGTTAT | 0.995 ± 0.038
64 | GGAGGTTAAC | 1.012 ± 0.0091
65 | GGAGTAAGAT | 1.3 ± 0.018
66 | GGAGTACTGT | 1.02 ± 0.013

Row | Sequence | switch fluorescence ratio
67 | GGAGTATGGG | 0.997 ± 0.029
68 | GGAGTCAGAA | 0.995 ± 0.014
69 | GGAGTCTAGC | 0.9825 ± 0.0036
70 | GGAGTGGGTC | 1.02 ± 0.041
71 | GGAGTGGTTG | 0.999 ± 0.036
72 | GGAGTTAAGT | 0.987 ± 0.043
73 | GGAGTTGAGG | 0.98147 ± 0.00093
74 | GGAGTTGATT | 0.9808 ± 0.0015
75 | GGAGTTGTGA | 0.995 ± 0.021
76 | GGAGTTTGGG | 0.994 ± 0.039
77 | GGAGTTTGTG | 0.989 ± 0.014
78 | GGATAAGGAC | 0.984 ± 0.019
79 | GGATAATAAG | 1.01 ± 0.029
80 | GGATAATATT | 1.05 ± 0.026
81 | GGATACCGTA | 1 ± 0.085
82 | GGATAGAGGA | 1.01 ± 0.02
83 | GGATAGGGGC | 1.03 ± 0.054
84 | GGATATAGTC | 1 ± 0.036
85 | GGATATATGG | 1 ± 0.025
